Experimental data as given in the supplement of paper PMC9112550, “Optimization of the antimicrobial peptide Bac7 by deep mutational scanning” (BMC Biology, 2022).

Each sequence was assayed on Escherichia coli TOP10 (assay: shrunken log2 fold change of peptide-encoding DNA abundance (4.5 h post-induction vs induction); higher = less antimicrobial activity (less host growth inhibition)). Conditions: time post-induction: 4.5 h; library: site-saturation at positions 5, 18, 19, 20.
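Further: peptides expressed intracellularly from a pBAD plasmid library in pooled LB shake-flask culture, induced with 0.3% L-arabinose, DNA abundance read by NGS, three biological replicates, DESeq2 with apeglm shrinkage.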

Sequence | shrunken log2 fold change
RRIRKRPPRLPRPRPRPHCEPRP | 0.177
RRIRKRPPRLPRPRPRPHDAPRP | 0.437
RRIRKRPPRLPRPRPRPHDYPRP | 0.0206
RRIRKRPPRLPRPRPRPHGSPRP | -0.0695
RRIRKRPPRLPRPRPRPHHKPRP | -0.176
RRIRKRPPRLPRPRPRPHIMPRP | -0.0414
RRIRKRPPRLPRPRPRPHKKPRP | -0.127
RRIRKRPPRLPRPRPRPHMPPRP | -0.175
RRIRKRPPRLPRPRPRPHMQPRP | -0.0772
RRIRKRPPRLPRPRPRPHNIPRP | -0.1
RRIRKRPPRLPRPRPRPHNQPRP | 0.0277
RRIRKRPPRLPRPRPRPHPGPRP | 0.293
RRIRKRPPRLPRPRPRPHPKPRP | 0.386
RRIRKRPPRLPRPRPRPHQKPRP | -0.0675
RRIRKRPPRLPRPRPRPHQRPRP | -0.0795
RRIRKRPPRLPRPRPRPHRAPRP | 0.515
RRIRKRPPRLPRPRPRPHSFPRP | -0.0644
RRIRKRPPRLPRPRPRPHSVPRP | 0.11
RRIRKRPPRLPRPRPRPHTCPRP | 0.00412
RRIRKRPPRLPRPRPRPHVVPRP | -0.183
RRIRKRPPRLPRPRPRPHYWPRP | -0.047
RRIRKRPPRLPRPRPRPIAKPRP | 0.141
RRIRKRPPRLPRPRPRPIALPRP | 0.0143
RRIRKRPPRLPRPRPRPIEEPRP | 0.566
RRIRKRPPRLPRPRPRPIFGPRP | 2.55

Sequence | shrunken log2 fold change
RRIRKRPPRLPRPRPRPIGKPRP | 0.0962
RRIRKRPPRLPRPRPRPIGRPRP | 0.015
RRIRKRPPRLPRPRPRPIHQPRP | -0.0102
RRIRKRPPRLPRPRPRPIKLPRP | -0.243
RRIRKRPPRLPRPRPRPIKNPRP | -0.188
RRIRKRPPRLPRPRPRPIKRPRP | 0.0734
RRIRKRPPRLPRPRPRPILNPRP | -0.158
RRIRKRPPRLPRPRPRPIMHPRP | -0.204
RRIRKRPPRLPRPRPRPIMVPRP | 0.248
RRIRKRPPRLPRPRPRPIPGPRP | -0.0379
RRIRKRPPRLPRPRPRPIPNPRP | 0.159
RRIRKRPPRLPRPRPRPIRTPRP | 0.416
RRIRKRPPRLPRPRPRPITMPRP | -0.122
RRIRKRPPRLPRPRPRPIVDPRP | 0.234
RRIRKRPPRLPRPRPRPIVKPRP | -0.158
RRIRKRPPRLPRPRPRPIWPPRP | 0.345
RRIRKRPPRLPRPRPRPIYKPRP | -0.0701
RRIRKRPPRLPRPRPRPKAAPRP | 0.142
RRIRKRPPRLPRPRPRPKADPRP | 0.018
RRIRKRPPRLPRPRPRPKAEPRP | 0.669
RRIRKRPPRLPRPRPRPKDKPRP | 0.388
RRIRKRPPRLPRPRPRPKDLPRP | 0.0142
RRIRKRPPRLPRPRPRPKDVPRP | -0.018
RRIRKRPPRLPRPRPRPKGAPRP | 0.217
RRIRKRPPRLPRPRPRPKGGPRP | 4.1

Sequence | shrunken log2 fold change
RRIRKRPPRLPRPRPRPKGMPRP | -0.00227
RRIRKRPPRLPRPRPRPKHHPRP | 0.122
RRIRKRPPRLPRPRPRPKKCPRP | 0.405
RRIRKRPPRLPRPRPRPKKGPRP | 0.368
RRIRKRPPRLPRPRPRPKKLPRP | 0.16
RRIRKRPPRLPRPRPRPKKPPRP | 0.0909
RRIRKRPPRLPRPRPRPKKYPRP | -0.149
RRIRKRPPRLPRPRPRPKLDPRP | 0.707
RRIRKRPPRLPRPRPRPKMYPRP | -0.0411
RRIRKRPPRLPRPRPRPKNMPRP | -0.129
RRIRKRPPRLPRPRPRPKNQPRP | 0.419
RRIRKRPPRLPRPRPRPKPMPRP | 0.515
RRIRKRPPRLPRPRPRPKQFPRP | -0.123
RRIRKRPPRLPRPRPRPKRKPRP | 0.89
RRIRKRPPRLPRPRPRPKTVPRP | 0.355
RRIRKRPPRLPRPRPRPKVDPRP | 0.00437
RRIRKRPPRLPRPRPRPKWDPRP | 0.361
RRIRKRPPRLPRPRPRPKWQPRP | 0.0343
RRIRKRPPRLPRPRPRPKYHPRP | -0.204
RRIRKRPPRLPRPRPRPLADPRP | 0.559
RRIRKRPPRLPRPRPRPLAEPRP | 1.11
RRIRKRPPRLPRPRPRPLCIPRP | -0.0466
RRIRKRPPRLPRPRPRPLCKPRP | 0.0465
RRIRKRPPRLPRPRPRPLCSPRP | 0.0457
RRIRKRPPRLPRPRPRPLCVPRP | 0.247

Sequence | shrunken log2 fold change
RRIRKRPPRLPRPRPRPLEGPRP | 0.162
RRIRKRPPRLPRPRPRPLELPRP | 0.134
RRIRKRPPRLPRPRPRPLGCPRP | 0.659
RRIRKRPPRLPRPRPRPLICPRP | 0.123
RRIRKRPPRLPRPRPRPLKCPRP | -0.072
RRIRKRPPRLPRPRPRPLKLPRP | 0.0766
RRIRKRPPRLPRPRPRPLLRPRP | 0.477
RRIRKRPPRLPRPRPRPLLTPRP | 0.652
RRIRKRPPRLPRPRPRPLNCPRP | -0.0221
RRIRKRPPRLPRPRPRPLNMPRP | 0.0134
RRIRKRPPRLPRPRPRPLPCPRP | 0.213
RRIRKRPPRLPRPRPRPLQDPRP | 0.485
RRIRKRPPRLPRPRPRPLRIPRP | 0.648
RRIRKRPPRLPRPRPRPLSIPRP | -0.0931
RRIRKRPPRLPRPRPRPLVIPRP | -0.0927
RRIRKRPPRLPRPRPRPLYFPRP | -0.271
RRIRKRPPRLPRPRPRPLYQPRP | -0.187
RRIRKRPPRLPRPRPRPMCFPRP | 0.265
RRIRKRPPRLPRPRPRPMCNPRP | 0.26
RRIRKRPPRLPRPRPRPMCWPRP | 0.0564
RRIRKRPPRLPRPRPRPMDVPRP | 0.0608
RRIRKRPPRLPRPRPRPMEYPRP | -0.00192
RRIRKRPPRLPRPRPRPMGAPRP | 0.414
RRIRKRPPRLPRPRPRPMGHPRP | 0.000751
RRIRKRPPRLPRPRPRPMGKPRP | -0.0982

Sequence | shrunken log2 fold change
RRIRKRPPRLPRPRPRPMHRPRP | 0.0595
RRIRKRPPRLPRPRPRPMHSPRP | -0.0199
RRIRKRPPRLPRPRPRPMIKPRP | -0.0199
RRIRKRPPRLPRPRPRPMINPRP | 0.148
RRIRKRPPRLPRPRPRPMIPPRP | 0.0969
RRIRKRPPRLPRPRPRPMLCPRP | -0.0829
RRIRKRPPRLPRPRPRPMLRPRP | 0.308
RRIRKRPPRLPRPRPRPMMMPRP | 0.619
RRIRKRPPRLPRPRPRPMMWPRP | 0.373
RRIRKRPPRLPRPRPRPMNFPRP | 0.18
RRIRKRPPRLPRPRPRPMPAPRP | 0.15
RRIRKRPPRLPRPRPRPMQCPRP | -0.0161
RRIRKRPPRLPRPRPRPMQHPRP | 0.589
RRIRKRPPRLPRPRPRPMQMPRP | -0.00145
RRIRKRPPRLPRPRPRPMQTPRP | 0.753
RRIRKRPPRLPRPRPRPMQWPRP | 0.263
RRIRKRPPRLPRPRPRPMRGPRP | 0.874
RRIRKRPPRLPRPRPRPMRMPRP | 1.84
RRIRKRPPRLPRPRPRPMRPPRP | 1.22
RRIRKRPPRLPRPRPRPMVPPRP | -0.043
RRIRKRPPRLPRPRPRPMWPPRP | -0.00167
RRIRKRPPRLPRPRPRPMWVPRP | -0.232
RRIRKRPPRLPRPRPRPNAFPRP | 0.0186
RRIRKRPPRLPRPRPRPNAHPRP | 0.208
RRIRKRPPRLPRPRPRPNALPRP | 0.301

Sequence | shrunken log2 fold change
RRIRKRPPRLPRPRPRPNDVPRP | 0.117
RRIRKRPPRLPRPRPRPNGAPRP | 0.168
RRIRKRPPRLPRPRPRPNGHPRP | -0.0369
RRIRKRPPRLPRPRPRPNGLPRP | -0.0579
RRIRKRPPRLPRPRPRPNHAPRP | -0.022
RRIRKRPPRLPRPRPRPNICPRP | -0.0826
RRIRKRPPRLPRPRPRPNKYPRP | -0.168
RRIRKRPPRLPRPRPRPNLIPRP | -0.494
RRIRKRPPRLPRPRPRPNLKPRP | 0.286
RRIRKRPPRLPRPRPRPNMAPRP | 0.00469
RRIRKRPPRLPRPRPRPNMEPRP | -0.0503
RRIRKRPPRLPRPRPRPNNLPRP | -0.218
RRIRKRPPRLPRPRPRPNPVPRP | 0.0163
RRIRKRPPRLPRPRPRPNRHPRP | -0.0212
RRIRKRPPRLPRPRPRPNRQPRP | 1.09
RRIRKRPPRLPRPRPRPNRRPRP | 0.0646
RRIRKRPPRLPRPRPRPNSLPRP | -0.00111
RRIRKRPPRLPRPRPRPNSRPRP | 0.149
RRIRKRPPRLPRPRPRPNVAPRP | 0.387
RRIRKRPPRLPRPRPRPNWIPRP | -0.2
RRIRKRPPRLPRPRPRPNYRPRP | 0.123
RRIRKRPPRLPRPRPRPPCEPRP | 0.509
RRIRKRPPRLPRPRPRPPDAPRP | 1.35
RRIRKRPPRLPRPRPRPPEIPRP | 0.131
RRIRKRPPRLPRPRPRPPFKPRP | 0.498
